Results published in IntAct's records for PubMed 29691401.

Biological target: lmbl3_human L3MBTL3 (UniProt Q96JM7)
Sequence (Q96JM7 whole entry): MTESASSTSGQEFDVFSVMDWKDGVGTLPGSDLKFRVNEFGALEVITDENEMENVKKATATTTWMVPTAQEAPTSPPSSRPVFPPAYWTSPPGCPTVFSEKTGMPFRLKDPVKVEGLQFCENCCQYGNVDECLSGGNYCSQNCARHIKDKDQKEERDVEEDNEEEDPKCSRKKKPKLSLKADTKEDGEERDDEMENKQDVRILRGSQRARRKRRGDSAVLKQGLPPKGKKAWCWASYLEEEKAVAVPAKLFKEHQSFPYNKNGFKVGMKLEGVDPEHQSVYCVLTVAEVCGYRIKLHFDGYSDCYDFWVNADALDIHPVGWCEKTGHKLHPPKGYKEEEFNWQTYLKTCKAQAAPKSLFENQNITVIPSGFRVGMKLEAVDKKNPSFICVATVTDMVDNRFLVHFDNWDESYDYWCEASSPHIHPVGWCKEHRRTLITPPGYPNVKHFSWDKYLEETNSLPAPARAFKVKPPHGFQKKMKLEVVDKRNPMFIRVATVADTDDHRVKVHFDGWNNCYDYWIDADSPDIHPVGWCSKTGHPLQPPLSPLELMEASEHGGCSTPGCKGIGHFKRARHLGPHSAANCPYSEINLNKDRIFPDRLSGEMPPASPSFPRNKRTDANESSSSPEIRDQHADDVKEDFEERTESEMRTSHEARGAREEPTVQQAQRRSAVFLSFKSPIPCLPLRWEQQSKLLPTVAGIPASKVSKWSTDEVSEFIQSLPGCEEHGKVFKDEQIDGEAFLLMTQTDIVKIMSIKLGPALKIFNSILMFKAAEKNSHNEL

Transcription factor E2F1 (Homo sapiens), Q01094 K185R, sequence (Q01094 whole entry K185R): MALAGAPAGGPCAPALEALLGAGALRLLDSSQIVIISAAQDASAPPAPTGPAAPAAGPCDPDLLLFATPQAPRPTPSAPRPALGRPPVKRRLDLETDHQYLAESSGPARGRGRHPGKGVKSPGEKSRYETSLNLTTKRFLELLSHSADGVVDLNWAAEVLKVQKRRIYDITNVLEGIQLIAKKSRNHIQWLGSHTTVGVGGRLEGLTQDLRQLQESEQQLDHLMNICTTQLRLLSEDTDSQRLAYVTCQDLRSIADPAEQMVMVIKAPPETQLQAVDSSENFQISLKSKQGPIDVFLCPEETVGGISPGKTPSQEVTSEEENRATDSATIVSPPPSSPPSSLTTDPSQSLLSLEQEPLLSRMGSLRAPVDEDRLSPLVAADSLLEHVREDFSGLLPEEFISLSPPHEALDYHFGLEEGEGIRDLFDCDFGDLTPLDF

effect of a mutation on the interaction: disrupting interaction strength
Substance: Transcription factor E2F1 (Homo sapiens), Q01094 K185R
